Experimental data taken from patent US20250263470A1 (AstraZeneca / MedImmune, published 2025).
Changes are numbered by the printed parent chain.

B1: FBD-56 (antibody, V domains shown)
VH: EVQLVESGGHLVQPGRSLRLSCAASGFTFEDYAMNWVRQAPGKGLEWVSVISWDSGRIGYADSVKGRFTISRDNAKNSSYLQMNSLRPEDTALYYCVRDMLAYYSDNSGKKYNVYGMDVWGQGTTVTVSS
VL: EIVLTQSPATLSLSPGERATLSCRASQSVSTFLAWYQQKPGQAPRLLMYDASNRATGIPARFSGSGSGTDFTLTISSLEPEDFAIYYCQQRSHWPPIFGQGTRLEIK
B2: FBD-94 (antibody, V domains shown)
VH: EVQLVESGGGLVQPGRSLRLSCAVSGFIFEDYAINWVRQAPGKGLEWVSIISWDSGRIGYADSVRGRFTISRDNAKNSSFLQMNSLRPEDTAVYYCVKDMLAYYYDGSGIRYNLYGMDVWGQGTTVTVSS
VL: B1 VL with Q27R, V29I, S30T, M48I, I58V, S76N, E81D, S92D
B3: FBC-39 (antibody, V domains shown)
VH: EVQLVVSGGGLVKPGGSLRLSCAASGLSFLNAWMSWVRQAPGKGLEWVGRIKSNTDGGTTDYAAPVKGRFSISRDDSKNMLFLHMSSLRTEDTAVYYCATDGPYSDDFRSGYAARYRYFGMDVWGQGTTVTVSS
VL: DIQMTQSPSSVSASVGDRVTITCRASQDISTWLAWYQQKPGKAPKLLIYAASSLQSGVPSRFSGSGSGTDFTLTISSLQPEDFATYFCQQANSFPPTFGQGTKLEIK
B4: FBC-39 LSL (antibody, V domains shown)
VH: B3 VH with V6E, S71T, M80T, F82Y, H84Q, R89K, A99T
VL: B3 VL with F87Y
B5: FBC-39 LTL (antibody, V domains shown)
VH: B3 VH with V6E, S28T, S71T, M80T, F82Y, H84Q, R89K, A99T
VL: B3 VL with F87Y
B6: FBC-39 FTL (antibody, V domains shown)
VH: B3 VH with V6E, L27F, S28T, S71T, M80T, F82Y, H84Q, R89K, A99T
VL: B3 VL with F87Y
B7: FBC-39 FSL (antibody, V domains shown)
VH: B3 VH with V6E, L27F, S71T, M80T, F82Y, H84Q, R89K, A99T
VL: B3 VL with F87Y

The binders below were run against HA of influenza B virus B/Florida/4/2006 (yamagata) (influenza B virus B/Florida/4/2006) (assay: cell-based or functional assay).
B1 was tested, and the “Neutralization (Ave IC50 ug/ml)” value was 0.013 µg/mL. In the case of B2, the “Neutralization (Ave IC50 ug/ml)” value is reported as 0.016 µg/mL. B3 was tested, and the “Neutralization (Ave IC50 ug/ml)” value was 0.046 µg/mL. With B4 the “Neutralization (Ave IC50 ug/ml)” value was 0.016 µg/mL. In the case of B5, the “Neutralization (Ave IC50 ug/ml)” value is reported as 0.023 µg/mL. For B6, the “Neutralization (Ave IC50 ug/ml)” value was 0.014 µg/mL. B7 was tested, and the “Neutralization (Ave IC50 ug/ml)” value was 0.017 µg/mL.
